{
  "source": "the RNAGym collection of RNA variant scans (doi:10.1093/nar/gkz1192)",
  "parents": {"B1": {"name": "CPEB3 Ribozyme (parent)", "chain": "UAACAGGGGGCCACAGCAGAAGCGUUCACGUCGCAGCCCCUGUCAGAUUCUGGUGAAUCUGCGAAUUCUGCUGUAUAUCUC"}},
  "data": [
    {"variants_of": "B1", "assay": "self-cleavage, relative activity (ratio to wild type); higher = more cleavage; in vitro, sequencing", "summary_of_the_method": "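Libraries of CPEB3 self-cleaving ribozyme mutants came from rounds of error-prone PCR and carried barcodes, which DNA sequencing matched to variants. In vitro transcription used T7 RNA polymerase at 37°C for 5 hours, with a further 15 min in DNase I before EDTA stopped the reaction; the ribozymes cleaved during both steps. The RNA was reverse transcribed with template switching and sequenced on Illumina. Relative activity is the cleaved/total read fraction of a variant divided by that of the unmutated ribozyme, averaged over three batches with at least 5 reads.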", "values": [
      {"variant": "UAACAGGGGGCCACAGCAGAAGCGUUCACCUCGCAGCCCCUGUCAGAUUCUGGUGGAUCUGCGAAUUCUGCUGUAUAUCUC", "note": "[G30C A56G]", "self-cleavage": 0.16},
      {"variant": "UAACAGGGGGCCACAGCAGAAGCGUUCACAUCGCAGCCCCUGUCAGAUUCUGGUGAAUCUGCGAAUUCUGCUGUAUAUCAC", "note": "[G30A U80A]", "self-cleavage": 0.22},
      {"variant": "UAACAGGGGGCCACAGCAGAAGCGUUCACAUCGCAGCCCCUGUCAGAUUCUGGUGAAUCUGCGAAUUCUGCUGUAUAUCCC", "note": "[G30A U80C]", "self-cleavage": 0.41},
      {"variant": "UAACAGGGGGCCACAGCAGAAGCGUUCACAUCGCAGCCCCUGUCAGAUUCUGGUGAAUCUGCGAAUUCUGCUGAAUAUCUC", "note": "[G30A U74A]", "self-cleavage": 0.29},
      {"variant": "UAACAGGGGGCCACAGCAGAAGCGUUCACAUCGCAGCCCCUGUCAGAUUCUGGUGAAUCUGCGAAUUCGGCUGUAUAUCUC", "note": "[G30A U69G]", "self-cleavage": 0.19},
      {"variant": "UAACAGGGGGCCACAGCAGAAGCGUUCACAUCGCAGCCCCUGUCAGAUUCUGGUGAAUCUGCGAAUUCAGCUGUAUAUCUC", "note": "[G30A U69A]", "self-cleavage": 0.23},
      {"variant": "UAACAGGGGGCCACAGCAGAAGCGUUCACAUCGCAGCCCCUGUCAGAUUCUGGUGAAUCUGCGAAUUCCGCUGUAUAUCUC", "note": "[G30A U69C]", "self-cleavage": 0.33},
      {"variant": "UAACAGGGGGCCACAGCAGAAGCGUUCACCUCGCAGCCCCUGUCAGAUUCUGGUGAAUCUGCGAUUUCUGCUGUAUAUCUC", "note": "[G30C A65U]", "self-cleavage": 0.3},
      {"variant": "UAACAGGGGGCCACAGCAGAAGCGUUCACCUCGCAGCCCCUGUCAGAUUCUGGUGAAUCUGCGAGUUCUGCUGUAUAUCUC", "note": "[G30C A65G]", "self-cleavage": 0.11},
      {"variant": "UAACAGGGGGCCACAGCAGAAGCGUUCACCUCGCAGCCCCUGUCAGAUUCUGGUGAAUCUGCGACUUCUGCUGUAUAUCUC", "note": "[G30C A65C]", "self-cleavage": 0.11},
      {"variant": "UAACAGGGGGCCACAGCAGAAGCGUUCACCUCGCAGCCCCUGUCAGAUUCUGGUGAAUCUGCGAAUUCUGCUGUGUAUCUC", "note": "[G30C A75G]", "self-cleavage": 0.12},
      {"variant": "UAACAGGGGGCCACAGCAGAAGCGUUCACCUCUCAGCCCCUGUCAGAUUCUGGUGAAUCUGCGAAUUCUGCUGUAUAUCUC", "note": "[G30C G33U]", "self-cleavage": 0.19},
      {"variant": "UAACAGGGGGCCACAGCAGAAGCGUUCACCUCGCAGCCCCUGUCAGAUUCUGGUGAGUCUGCGAAUUCUGCUGUAUAUCUC", "note": "[G30C A57G]", "self-cleavage": 0.25},
      {"variant": "UAACAGGGGGCCACAGCAGAAGCGUUCACAUCGCAGCCCCUGUCAGAUUCUGGUGAAUCUGCGAAUUCUGCCGUAUAUCUC", "note": "[G30A U72C]", "self-cleavage": 0.33},
      {"variant": "UAACAGGGGGCCACAGCAGAAGCGUUCACAUCGCAGCCCCUGUCAGAUUCUGGUGAAUCUGCGAAUUCUGCAGUAUAUCUC", "note": "[G30A U72A]", "self-cleavage": 0.2},
      {"variant": "UAACAGGGGGCCACAGCAGAAGCGUUCACCUCGCAGCCCCUGUCCGAUUCUGGUGAAUCUGCGAAUUCUGCUGUAUAUCUC", "note": "[G30C A45C]", "self-cleavage": 0.34},
      {"variant": "UAACAGGGGGCCACAGCAGAAGCGUUCACCUCGCAGCCCCUGUCUGAUUCUGGUGAAUCUGCGAAUUCUGCUGUAUAUCUC", "note": "[G30C A45U]", "self-cleavage": 0.09},
      {"variant": "UAACAGGGGGCCACAGCAGAAGCGUUCACAUCGCAGCCCCUGUCAGAUUCUGGUGAAUCUGCGAAUUCUGCUGUACAUCUC", "note": "[G30A U76C]", "self-cleavage": 0.26},
      {"variant": "UAACAGGGGGCCACAGCAGAAGCGUUCACAUCGCAGCCCCUGUCAGAUUCUGGUGAAUCUGCGAAUUCUGCUGUAAAUCUC", "note": "[G30A U76A]", "self-cleavage": 0.13},
      {"variant": "UAACAGGGGGCCACAGCAGAAGCGUUCACCUCGCAGCCCUUGUCAGAUUCUGGUGAAUCUGCGAAUUCUGCUGUAUAUCUC", "note": "[G30C C40U]", "self-cleavage": 0.23},
      {"variant": "UAACAGGGGGCCACAGCAGAAGCGUUCACAUCGCAGCCCCUGUCAGAUUCUGGUGAAUCUGCGAAUCCUGCUGUAUAUCUC", "note": "[G30A U67C]", "self-cleavage": 0.18},
      {"variant": "UAACAGGGGGCCACAGCAGAAGCGUUCACAUCGCAGCCCCUGUCAGAUUCUGGUGAAUCUGCGAAUACUGCUGUAUAUCUC", "note": "[G30A U67A]", "self-cleavage": 0.22},
      {"variant": "UAACAGGGGGCCACAGCAGAAGCGUUCACCUCGCAGCCCCUGUCAGAUUCUGGUGAAUCUGUGAAUUCUGCUGUAUAUCUC", "note": "[G30C C62U]", "self-cleavage": 0.06},
      {"variant": "UAACAGGGGGCCACAGCAGAAGCGUUCACCUCGCAGCCCCUGUCAGAUUCUGGUGAAUCUGCGAAUUCUGCUGUAUAUCUC", "note": "[G30C]", "self-cleavage": 0.28},
      {"variant": "UAACAGGGGGCCACAGCAGAAGCGUUCACAUCGCAGCCCCUGUCAGAUUCUGGUGAAUCAGCGAAUUCUGCUGUAUAUCUC", "note": "[G30A U60A]", "self-cleavage": 0.08},
      {"variant": "UAACAGGGGGCCACAGCAGAAGCGUUCACAUCGCAGCCCCUGUCAGAUUCUGGUGAAUCGGCGAAUUCUGCUGUAUAUCUC", "note": "[G30A U60G]", "self-cleavage": 0.34},
      {"variant": "UAACAGGGGGCCACAGCAGAAGCGUUCACAUCGCAGCCCCUGUCAGAUUCUGGUGAAUCCGCGAAUUCUGCUGUAUAUCUC", "note": "[G30A U60C]", "self-cleavage": 0.15},
      {"variant": "UAACAGGGGGCCACAGCAGAAGCGUUCACCUCGCAGCCCCUGUCAGAUUCUGGUGAAUCUGCGUAUUCUGCUGUAUAUCUC", "note": "[G30C A64U]", "self-cleavage": 0.2},
      {"variant": "UAACAGGGGGCCACAGCAGAAGCGUUCACAUCGCAGCCCCUGUCAGAUUCUGGUGAAACUGCGAAUUCUGCUGUAUAUCUC", "note": "[G30A U58A]", "self-cleavage": 0.09},
      {"variant": "UAACAGGGGGCCACAGCAGAAGCGUUCACAUCGCAGCCCCUGUCAGAUUCUGGUGAACCUGCGAAUUCUGCUGUAUAUCUC", "note": "[G30A U58C]", "self-cleavage": 0.16},
      {"variant": "UAACAGGGGGCCACAGCAGAAGCGUUCACAUCGCAGCCCCUGUCAGAUUCUGGUGAAUCUGCGAAAUCUGCUGUAUAUCUC", "note": "[G30A U66A]", "self-cleavage": 0.23},
      {"variant": "UAACAGGGGGCCACAGCAGAAGCGUUCACAUCGCAGCCCCUGUCAGAUUCUGGUGAAUCUGCGAACUCUGCUGUAUAUCUC", "note": "[G30A U66C]", "self-cleavage": 0.32},
      {"variant": "UAACAGGGGGCCACAGCAGAAGCGUUCACAUCGCAGCCCCUGUCAGAUUCUGGUGAAUCUGCGAAUUCUGCUGUAUACCUC", "note": "[G30A U78C]", "self-cleavage": 0.24},
      {"variant": "UAACAGGGGGCCACAGCAGAAGCGUUCACAUCGCAGCCCCUGUCAGAUUCUGGUGAAUCUGCGAAUUCUGCUGUAUAACUC", "note": "[G30A U78A]", "self-cleavage": 0.53}
    ]}
  ]
}
